This note sets out measurements from patent US20150246947A1 (BAXALTA, published 2015).

The target in experiment [1] is T1, human Protein S (human, UniProt P07225 42-676).
T1 construct: Called 'full length Protein S' / 'human full-length Protein S'; It was coated on plates (ELISA), Eu-labeled (LANCE) or immobilized on a chip (Biacore); also called PS; full length Protein S
T1 sequence: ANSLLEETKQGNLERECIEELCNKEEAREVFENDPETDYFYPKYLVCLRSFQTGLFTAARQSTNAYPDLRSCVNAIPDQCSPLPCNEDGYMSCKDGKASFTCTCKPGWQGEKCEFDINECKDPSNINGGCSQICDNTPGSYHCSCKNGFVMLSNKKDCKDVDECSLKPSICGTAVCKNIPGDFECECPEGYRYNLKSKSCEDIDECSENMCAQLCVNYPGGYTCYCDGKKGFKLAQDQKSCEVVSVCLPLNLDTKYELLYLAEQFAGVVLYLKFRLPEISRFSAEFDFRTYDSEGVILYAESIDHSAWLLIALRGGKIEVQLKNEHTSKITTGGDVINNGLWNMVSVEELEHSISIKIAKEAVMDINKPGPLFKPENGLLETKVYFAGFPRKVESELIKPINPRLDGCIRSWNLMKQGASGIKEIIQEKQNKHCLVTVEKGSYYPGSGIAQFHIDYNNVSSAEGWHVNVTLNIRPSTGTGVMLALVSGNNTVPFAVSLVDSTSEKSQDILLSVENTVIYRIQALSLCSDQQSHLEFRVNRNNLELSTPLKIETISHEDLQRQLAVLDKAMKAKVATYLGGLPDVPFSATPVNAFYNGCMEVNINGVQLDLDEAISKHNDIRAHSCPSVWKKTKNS
Kind of experiment: LANCE TR-FRET competition; Protein S 2 nM, competitor tracer JBS0684 60 nM; Tecan F500 reader. How it is done:
Peptides also were characterized in a competition, homogenous europium-based TR-FRET assay (LANCE IC50 assay) using JBS0684 as a tracer (i.e., competitor for Protein S binding). […] The final volume was 50 μl/well. […] Binding of tracer peptides to soluble europium-labeled Protein S was detected by Streptavidin labeled with an acceptor fluorophor (ULight™). Inhibition of tracer-binding to Protein S by a non-biotinylated peptide results in a decrease of TR-FRET between the Eu-labeled Protein S and ULight™-labeled Streptavidin. IC50 values were obtained from peptide titration curves at constant tracer concentration using non-linear regression of the fluorescence emission signals at 665 nm.

For experiment [2], the target named is T1, human Protein S. Nature of the experiment: LANCE TR-FRET competition; Eu-Protein S 10 nM, competitor tracer JBS0684 300 nM; Molecular Devices M5 reader. As to the method:
Peptides also were characterized in a competition, homogenous europium-based TR-FRET assay (LANCE IC50 assay) using JBS0684 as a tracer (i.e., competitor for Protein S binding). The following reagents were mixed together in a Perkin-Elmer ProxiPlate MTP well (indicated concentration is the final concentration): Eu-labeled Protein S (10 nM), Ulight™-labeled Streptavidin (100 nM), tracer (JBS0684 (300 nM)), and peptide (titrated in three-fold dilution steps). The final volume was 50 μl/well. The reaction mix was incubated for 1 hour at room temperature, then the fluorescence emission at 665 nm was recorded on a multi-mode reader (SpectraMax® M5, Molecular Devices) using the following instrument settings: Ex 340 nm, Em 665 nm, delay 50 μsec, integration 100 μsec, reads 100. Binding of tracer peptides to soluble europium-labeled Protein S was detected by Streptavidin labeled with an acceptor fluorophor (ULight™). Inhibition of tracer-binding to Protein S by a non-biotinylated peptide results in a decrease of TR-FRET between the Eu-labeled Protein S and ULight™-labeled Streptavidin. IC50 values were obtained from peptide titration curves at constant tracer concentration using non-linear regression of the fluorescence emission signals at 665 nm.

By IC50 is commonly meant the concentration that inhibits the measured activity by half.

B1: JBS2572 (peptide)
peptide: Ac-TGLVSAGWYDYNFDHYREFT-NH2
notes: also called parent peptide JBS2572
With B1, the IC50 in the experiment with human Protein S [1] is roughly 0.01 µM; with human Protein S [2] it was 0.049 µM.
